Source: paper PMC7570871, “Evaluation of a New ^177Lu-Labeled Somatostatin Analog for the Treatment of Tumors Expressing Somatostatin Receptor Subtypes 2 and 5” (Molecules, 2020)

Tests used:
[1] = assay type: physicochemical; details: pH 7.4
Procedure: To a pre-saturated mixture of 500 µL 1-octanol and 500 µL of phosphate-buffered saline (PBS) (pH 7.4), 10 µL of 1 µM of the ^177Lu-labeled conjugates were added. The solution was vortexed for 1 h to reach the equilibrium and then centrifuged (3000 rpm) for 10 min. From each phase, 100 µL of the aliquot was removed and measured in a γ-counter. Each measurement was repeated three times. Care was taken to avoid cross-contamination between the phases. The partition coefficient was calculated as the average of the logarithmic values (n = 3) of the ratio between the radioactivity in the organic and the PBS phase.

in vivo = details: female, mouse, total radioactivity
Procedure: The Veterinary Office (Department of Health) of the Cantonal Basel-Stadt approved the animal experiments (approval no. 2799) in accordance with the Swiss regulations for animal treatment. Female athymic Nude-Foxn1^nu/Foxn1^+ mice (Envigo, The Netherlands), 4–6 weeks old, were injected subcutaneously with 10^7 HEK-SST2 cells in the right shoulder and 10^7 HEK-SST5 cells in the left shoulder, freshly suspended in 100 μL sterile phosphate-buffered saline. The tumors were allowed to grow for 2–3 weeks.
At the selected time points, the mice were sacrificed and the organs of interest were collected, rinsed, blotted, weighed and counted in a γ-counter. The results are expressed as a percentage of injected activity per gram (%IA/g) obtained by extrapolation from counts of an aliquot taken from the injected solution as a standard.
At the preselected time points, the mice were sacrificed and the organs of interest were collected, rinsed, blotted, weighed and counted in a γ-counter. The results are expressed as a percentage of injected activity per gram (%IA/g) obtained by extrapolation from counts of an aliquot taken from the injected solution as a standard.

[2] = athymic Nude-Foxn1^nu/Foxn1^+, 100 pmol, Pancreas uptake
[3] = athymic Nude-Foxn1^nu/Foxn1^+, 100 pmol, Spleen uptake
[4] = athymic Nude-Foxn1^nu/Foxn1^+, 100 pmol, Stomach uptake
[5] = athymic Nude-Foxn1nu/Foxn1+, 10 pmol, Adrenal uptake
[6] = athymic Nude-Foxn1nu/Foxn1+, 10 pmol, Blood uptake
[7] = athymic Nude-Foxn1nu/Foxn1+, 10 pmol, Bone uptake
[8] = athymic Nude-Foxn1nu/Foxn1+, 10 pmol, Heart uptake
[9] = athymic Nude-Foxn1nu/Foxn1+, 10 pmol, Intestine uptake
[10] = athymic Nude-Foxn1nu/Foxn1+, 10 pmol, Kidney uptake
[11] = athymic Nude-Foxn1nu/Foxn1+, 10 pmol, Liver uptake
[12] = athymic Nude-Foxn1nu/Foxn1+, 10 pmol, Lung uptake
[13] = athymic Nude-Foxn1nu/Foxn1+, 10 pmol, Muscle uptake
[14] = athymic Nude-Foxn1nu/Foxn1+, 10 pmol, Pancreas uptake
[15] = athymic Nude-Foxn1nu/Foxn1+, 10 pmol, SST2-tumor uptake
[16] = athymic Nude-Foxn1nu/Foxn1+, 10 pmol, SST5-tumor uptake
[17] = athymic Nude-Foxn1nu/Foxn1+, 10 pmol, Spleen uptake
[18] = athymic Nude-Foxn1nu/Foxn1+, 10 pmol, Stomach uptake
[19] = athymic Nude-Foxn1nu/Foxn1+, 100 pmol, Adrenal uptake
[20] = athymic Nude-Foxn1nu/Foxn1+, 100 pmol, Blood uptake
[21] = athymic Nude-Foxn1nu/Foxn1+, 100 pmol, Bone (Femur) uptake
[22] = athymic Nude-Foxn1nu/Foxn1+, 100 pmol, Femur uptake
[23] = athymic Nude-Foxn1nu/Foxn1+, 100 pmol, Heart uptake

CC(C)[C@@H]1NC(=O)[C@H](CCCCN)NC(=O)[C@@H](Cc2c[nH]c3ccccc23)NC(=O)[C@H](Cc2ccc(O)c(I)c2)NC(=O)[C@@H](NC(=O)[C@@H](Cc2ccc(N)c(I)c2)NC(=O)CN2CCN(CC(=O)O)CCN(CC(=O)O)CCN(CC(=O)O)CC2)CSSC[C@@H](C(=O)N[C@H](C(N)=O)[C@@H](C)O)NC1=O [[^177Lu]Lu-DOTA-ST8950, metal not drawn]
logD [1]: -1.2 ± 0.1
tissue uptake at 168 h (in vivo; athymic Nude-Foxn1^nu/Foxn1^+, 100 pmol, Liver uptake): 0.54 ± 0.09 %ID/g
tissue uptake at 24 h (in vivo; [2]): 1.68 ± 0.27 %ID/g
tissue uptake at 72 h (in vivo; [2]): 0.72 ± 0.14 %ID/g
tissue uptake at 168 h (in vivo; [2]): 0.37 ± 0.05 %ID/g
tissue uptake at 24 h (in vivo; [3]): 0.36 ± 0.24 %ID/g
tissue uptake at 72 h (in vivo; [3]): 0.38 ± 0.12 %ID/g
tissue uptake at 168 h (in vivo; [3]): 0.27 ± 0.05 %ID/g
tissue uptake at 24 h (in vivo; [4]): 2.61 ± 0.44 %ID/g
tissue uptake at 72 h (in vivo; [4]): 1.66 ± 0.49 %ID/g
tissue uptake at 168 h (in vivo; [4]): 0.99 ± 0.04 %ID/g
tissue uptake at 1 h (in vivo; [5]): 6.01 ± 1.15 %ID/g
tissue uptake at 4 h (in vivo; [5]): 5.37 ± 1.17 %ID/g
tissue uptake at 1 h (in vivo; [6]): 1.3 ± 0.24 %ID/g
tissue uptake at 4 h (in vivo; [6]): 0.15 ± 0.02 %ID/g
tissue uptake at 1 h (in vivo; [7]): 1.35 ± 0.25 %ID/g
tissue uptake at 4 h (in vivo; [7]): 1.12 ± 0.38 %ID/g
tissue uptake at 1 h (in vivo; [8]): 0.84 ± 0.18 %ID/g
tissue uptake at 4 h (in vivo; [8]): 0.2 ± 0.04 %ID/g
tissue uptake at 1 h (in vivo; [9]): 3.08 ± 0.38 %ID/g
tissue uptake at 4 h (in vivo; [9]): 2.29 ± 0.42 %ID/g
tissue uptake at 1 h (in vivo; [10]): 11.7 ± 1.79 %ID/g
tissue uptake at 4 h (in vivo; [10]): 10.8 ± 1.27 %ID/g
tissue uptake at 1 h (in vivo; [11]): 2.73 ± 0.59 %ID/g
tissue uptake at 4 h (in vivo; [11]): 2.2 ± 0.27 %ID/g
tissue uptake at 1 h (in vivo; [12]): 7.12 ± 2.59 %ID/g
tissue uptake at 4 h (in vivo; [12]): 3.81 ± 0.98 %ID/g
tissue uptake at 1 h (in vivo; [13]): 0.4 ± 0.07 %ID/g
tissue uptake at 4 h (in vivo; [13]): 0.13 ± 0.02 %ID/g
tissue uptake at 1 h (in vivo; [14]): 5.99 ± 1.75 %ID/g
tissue uptake at 4 h (in vivo; [14]): 3.21 ± 0.5 %ID/g
tissue uptake at 1 h (in vivo; [15]): 12.1 ± 3.94 %ID/g
tissue uptake at 4 h (in vivo; [15]): 10.3 ± 2.78 %ID/g
tissue uptake at 1 h (in vivo; [16]): 1.94 ± 0.46 %ID/g
tissue uptake at 4 h (in vivo; [16]): 1.52 ± 0.75 %ID/g
tissue uptake at 1 h (in vivo; [17]): 1.82 ± 0.26 %ID/g
tissue uptake at 4 h (in vivo; [17]): 0.96 ± 0.18 %ID/g
tissue uptake at 1 h (in vivo; [18]): 9.68 ± 2.34 %ID/g
tissue uptake at 4 h (in vivo; [18]): 6.03 ± 1.28 %ID/g
tissue uptake at 1 h (in vivo; [19]): 4.23 ± 0.68 %ID/g
tissue uptake at 4 h (in vivo; [19]): 5.21 ± 1.92 %ID/g
tissue uptake at 24 h (in vivo; [19]): 3.81 ± 1.08 %ID/g
tissue uptake at 72 h (in vivo; [19]): 2.86 ± 1.3 %ID/g
tissue uptake at 168 h (in vivo; [19]): 1.84 ± 0.49 %ID/g
tissue uptake at 1 h (in vivo; [20]): 0.96 ± 0.23 %ID/g
tissue uptake at 4 h (in vivo; [20]): 0.09 ± 0.03 %ID/g
tissue uptake at 24 h (in vivo; [20]): 0.02 %ID/g
tissue uptake at 72 h (in vivo; [20]): 0.01 %ID/g
tissue uptake at 1 h (in vivo; [21]): 0.74 ± 0.11 %ID/g
tissue uptake at 4 h (in vivo; [21]): 0.49 ± 0.11 %ID/g
tissue uptake at 24 h (in vivo; [22]): 0.3 ± 0.05 %ID/g
tissue uptake at 72 h (in vivo; [22]): 0.19 ± 0.05 %ID/g
tissue uptake at 168 h (in vivo; [22]): 0.11 ± 0.01 %ID/g
tissue uptake at 1 h (in vivo; [23]): 0.69 ± 0.09 %ID/g
tissue uptake at 4 h (in vivo; [23]): 0.17 ± 0.03 %ID/g
